Source: patent US20150111836A1, “CELLULAR APOBEC3 PROTEINS AND MODULATORS THEREOF FOR REGULATING DNA REPAIR PROCESSES AND TREATING PROLIFERATIVE DISEASES” (priority 2012, published 2015)
Where a SMILES comes first, the peptide text is derived from it. The star is where a group is joined. Cbz = O=C(OCc1ccccc1)*; CH2F = FC*

Experiments:
[1] = system: H9 cells; assay: γ-H2AX / RPA foci after IR in A3G knockdown H9 cells; format: cell-based, human
Experimental: (§1) For short hairpin (sh) RNA expression, the following puromycin resistance-encoding vectors were used: A3G-specific pLKO.1.shA3G (TRCN0000052188, clone NM_021822.1-398s1 c1; Sigma-Aldrich), having the nucleic acid sequence 5′-CCGG-[…]-CTCGAG-[…]-TTTTTG-3′, as denoted by SEQ ID NO. 92, and the unrelated control cyprinid herpes virus 3 (CyHV3)-specific pLKO.1.shCtr1. […]. Culture supernatants were collected 48 h post transfection, centrifuged for 10 min at 4,000 rpm to remove cell debris and then for 1 h at 35,000 rpm using a swing SW-41 rotor (Beckman). H9 cells were transduced with the concentrated vectors by spinoculation for 1 h at 1,000 rpm and selected with puromycin (1 μg ml^−1) for 3-10 days post transduction.
(§2) Cells were irradiated by exposure to a ^60Co source producing 1 Gy sec^−1 γ-radiation, or mock-irradiated. Following incubation at 37° C., cells were fixed, attached to glass slides by cytospin, permeabilized with detergent and blocked with 10% normal goat serum. Cells were then incubated with A3G-specific rabbit polyclonal antibody, γ-H2AX-specific monoclonal antibody, or RPA32-specific monoclonal antibody, followed by incubation with goat anti-rabbit Cy-5-conjugated antibody, goat anti-mouse Cy-2-conjugated antibody and DAPI. Slides were mounted and examined by Zeiss LSM 710 confocal microscope. Data were collected sequentially using a ×63 objective with 7-fold averaging at a resolution of […], Z-sections were obtained using an optical slice of less than 1 μm. Data were analyzed with the Zen 2009.

[2] = system: A3G; assay: shRNA-mediated knockdown of A3G expression in H9 cells; format: cell-based, human; details: Western blot, FIG. 8F
Experimental: as §1
Transfected or infected cells were harvested, washed once in PBS, re-suspended in SDS-gel loading buffer and boiled for 10 min. Samples of 5×10^4 cells were analyzed by SDS-12% polyacrylamide gel electrophoresis (SDS-PAGE), followed by transfer of the proteins to polyvinylidene fluoride (PVDF) membrane. HIV-1 proteins were detected by using rabbit anti-Vif and monoclonal anti-Ca-p24 antibodies. A3G protein was identified by rabbit polyclonal anti-A3G.

[3] = system: H9 cells; assay: Cell cycle analysis following IR; format: cell-based, human; details: H9-shA3G cells, 4 Gy, 20 hours, FIG. 8J
Experimental: PBMC, H9 or puromycin-resistant H9-shRNA cells were irradiated (4 Gy) or mock-irradiated. Following 20 h incubation at 37° C., cells were fixed with methanol for 1 h at −20° C., washed with phosphate buffered saline (PBS), treated with RNase A (50 μg ml ^−1) and stained with PI (5 μg ml^−1). The total cellular DNA content was determined by flow cytometry using FACScan. Cell cycle data were analyzed by the CellQuest Pro software and include 10,000 events gated on singlet cells.

[4] = target: T1, A3G (Homo sapiens, UniProt Q9HC16); format: biochemical; details: for inhibition of A3G deaminase activity: peptide at 1 μM, FIG. 15B; for inhibition of A3G mediated deamination by A3G-derived peptides: 1-100 μM, FIG. 19B
T1 construct: Myc (C); His6 (C); made in house; host or cells: 293T cells (human embryonic kidney), transfected with pcDNA3.1-A3GMyc-His6, Ni-NTA purified
Experimental: Deaminase activity of purified enzyme and virion-associated A3G protein was examined as previously described. Briefly, A3G deamination reactions were performed in a total volume of 10 μl in 25 mM Tris, pH 7.0, and 0.01-1 fmol single-stranded (ss) deoxyoligonucleotide substrate at 37° C. The reaction was terminated by heating to 95° C. for 5 min. One μl of the reaction mixture was used for PCR amplification performed in 20 μl buffer S, using the following program: 1 cycle at 95° C. for 3 min, followed by 30 cycles of annealing at 61° C. for 30 s and denaturing at 94° C. for 30 s. Aliquots of the PCR products (10 μl) were incubated with Eco147I restriction enzyme for 1 h at 37° C. Completion of the restriction reaction was verified by using positive-control substrate containing CCU instead of CCC. Restriction-reaction products were loaded onto 14% gels and separated by PAGE. Gels were stained with SYBR gold nucleic acid stain diluted 1:10,000 in 0.5× Tris-Borate-EDTA buffer (TBE, pH 7.8), visualized by UV light (312 nm), captured by an Olympus C-5050 charge-coupled device (CCD) camera and analyzed by optical density (OD) scan using the TINA2.0 densitometry software. Assessment of A3G entrapped in virions was carried out with concentrated viruses stocks of 3-5 μg of p24/μl) suspended in PBS containing Triton X-100 at final concentration of 0.1% (vv) and 50 μg/ml RNase A (Sigma-Aldrich). Deamination reactions were incubated for 1 h at 37° C.
A panel of 46 HIV-1 Vif-derived 15-mer peptides (obtained through the NIH AIDS Research and Reference Reagent Program) were screened for inhibition of purified A3G-His6 catalytic activity in a standard cytidine deamination assay. […] A fluorescein-conjugated peptide (kindly provided by Dr. Assaf Friedler) was used to assess the peptide uptake by H9 cells.

[5] = system: H9 cells; assay: DSB repair (γ-H2AX staining) in irradiated H9 cells pre-incubated with Vif peptides; format: cell-based, human; details: 2 h pre-incubation with 100 μM peptide, 4 Gy IR, stained after 8 h
Experimental: as §2
A panel of 46 HIV-1 Vif-derived 15-mer peptides (obtained through the NIH AIDS Research and Reference Reagent Program) were screened for inhibition of purified A3G-His6 catalytic activity in a standard cytidine deamination assay. The inhibitory peptide Vif25-39 corresponds to amino acids 25-39 in HIV-1 HXBII Vif. A fluorescein-conjugated peptide (kindly provided by Dr. Assaf Friedler) was used to assess the peptide uptake by H9 cells. […]

T1 sequence (Q9HC16 whole entry): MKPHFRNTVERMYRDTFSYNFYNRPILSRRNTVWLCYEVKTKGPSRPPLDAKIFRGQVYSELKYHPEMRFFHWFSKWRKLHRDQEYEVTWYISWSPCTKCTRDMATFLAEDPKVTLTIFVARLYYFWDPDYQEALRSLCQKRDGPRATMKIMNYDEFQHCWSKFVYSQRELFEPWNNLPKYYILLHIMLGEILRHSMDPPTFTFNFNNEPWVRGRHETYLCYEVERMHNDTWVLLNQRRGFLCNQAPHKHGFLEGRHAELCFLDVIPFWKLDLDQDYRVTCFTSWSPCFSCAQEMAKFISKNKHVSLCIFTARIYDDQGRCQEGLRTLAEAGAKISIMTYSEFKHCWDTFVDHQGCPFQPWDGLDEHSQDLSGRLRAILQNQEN

5′-CCGG-GCCAGGTGTATTCCGAACTTA-CTCGAG-TAAGTTCGGAATACACCTGGC-TTTTTG-3′ (DNA CCGGGCCAGGTGTATTCCGAACTTACTCGAGTAAGTTCGGAATACACCTGGCTTTTTG; expressed or natural sequence) [shA3G, A3G-specific shRNA vector TRCN0000052188]
RPA recruitment to damage-induced foci following IR ([1]; H9-shA3G cells, 4 Gy, 2 h, FIG. 10A): did not form such foci | γ-H2AX foci in the hours following IR ([1]; H9-shA3G cells, 4 Gy, up to 8 hours, FIG. 8G): did not decrease | reduction of A3G expression compared to H9-shCtr1 cells [2]: 70-80% | G2M arrest following IR [3]: did not undergo G2M arrest

COC(=O)C[C@H](NC(=O)[C@H](C)NC(=O)[C@@H](NC(=O)OCc1ccccc1)C(C)C)C(=O)CF [z-VAD-fmk, reference compound] (Cbz-Val-Ala-Asp(OMe)-CH2F)
DSB incidence in the presence of caspase inhibitor ([1]; 20 μM, 1 hour pre-incubation, γ-H2AX 6 hours after IR, FIG. 8H): comparable with cells treated with mock

DCFSESAIRNAILGH (Viral - Vif peptide) [Vif113-127]
inhibition of A3G deaminase activity [4]: inhibited

DLADQLIHLYYFDCF (Viral - Vif peptide) [Vif101-115]
inhibition of A3G deaminase activity [4]: inhibited

GWFYRHHYESTHPRI (Viral - Vif peptide) [Vif37-51]
inhibition of A3G deaminase activity [4]: inhibited

IHLYYFDCF (Viral - Vif peptide) [SEQ ID NO. 71]
inhibition of A3G mediated deamination by short Vif- and A3F-derived peptides ([4]; 0.001 to 10 μM, FIG. 19A): distinct inhibitory pattern

IVWQVDRMRIRTWKS [Vif9-23]
inhibition of A3G deaminase activity [4]: inhibited

RMHNDTWVLLNQRRG (listed as Homo sapiens) [SEQ ID NO. 84]
inhibition of A3G mediated deamination by A3G-derived peptides [4]: marked inhibitory effect

WRKKRYSTQVDPDLA (Viral - Vif peptide) [Vif89-103, control peptide]
cells containing DSBs [5]: < 8% | inhibition of A3G-mediated deamination ([4]; peptide at 100 μM): did not inhibit

WVRGRHETYLCYEVE (listed as Homo sapiens) [SEQ ID NO. 83]
inhibition of A3G mediated deamination by A3G-derived peptides [4]: marked inhibitory effect
